Target: HLA-A*02:01 (Homo sapiens, UniProt P04439, D140Y/D185E/D98H/E176V/E277Q/G131W/G231S/I119V/I121R/I166T/I218V/L300P/L318F/N151K/N90K/P208A/P217A/Q86G/Q94H/R138H/R169H/T345S)
Assay: MHC binding assay (UV-ligand exchange, beta2m ELISA)
Settings: binding of HLA-class I restricted peptides to HLA-A*02:01, β2m ELISA
Method in brief: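 UV-exchange pMHC monomers, 100-fold diluted → streptavidin capture 1 h 37 °C → HRP anti-β2m 2 ug/ml 1 h 37 °C → TMB, A450. Yield from HLA-A*02:01/MLA-001 monomer standard curve, 15-500 ng/ml. Only stably bound peptides keep β2m-containing complexes intact.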

Peptide Exchange (MHC class I binding score, peptide exchange yield)	Substance
“+++” (≥50 = +++)	243 (ILPTLEKELFL; listed as Homo sapiens) [compound 243]
“+++” (≥50 = +++)	264 (TILDYINVV; listed as Homo sapiens) [compound 264]
“+++” (≥50 = +++)	258 (RLDYITAEI; listed as Homo sapiens) [compound 258]
“+++” (≥50 = +++)	289 (ILEEQPMDMLL; listed as Homo sapiens) [compound 289]
“+++” (≥50 = +++)	371 (SLADDSVLERL; listed as Homo sapiens) [compound 371]
“+++” (≥50 = +++)	61 (FVYFIVREV; listed as Homo sapiens) [compound 61]
“+++” (≥50 = +++)	7 (ALLERTGYTL; listed as Homo sapiens) [compound 7]
“+++” (≥50 = +++)	280 (YTLDSLYWSV; listed as Homo sapiens) [compound 280]
“+++” (≥50 = +++)	204 (GLLQINDKIAL; listed as Homo sapiens) [compound 204]
“+++” (≥50 = +++)	132 (LVYEAIIMV; listed as Homo sapiens) [compound 132]
“+++” (≥50 = +++)	378 (YILGKFFAL; listed as Homo sapiens) [compound 378]
“++++” (≥75% = ++++)	245 (KIMDYSLLLGV; listed as Homo sapiens) [compound 245]
“++++” (≥75% = ++++)	285 (GVATAGCVNEV; listed as Homo sapiens) [compound 285]
“+++” (≥50 = +++)	224 (AMEALVVEV; listed as Homo sapiens) [compound 224]
“+++” (≥50 = +++)	99 (ILIFHSVAL; listed as Homo sapiens) [compound 99]
“+++” (≥50 = +++)	104 (KLILLDTPLFL; listed as Homo sapiens) [compound 104]
“+++” (≥50 = +++)	14 (ALLRLLPGL; listed as Homo sapiens) [compound 14]
“+++” (≥50 = +++)	177 (VLDDRELLL; listed as Homo sapiens) [compound 177]
“++” (≥20% = ++)	105 (KLMNDIADI; listed as Homo sapiens) [compound 105]
“+++” (≥50 = +++)	179 (VLLGLEMTL; listed as Homo sapiens) [compound 179]
“++++” (≥75% = ++++)	85 (HLMLHTAAL; listed as Homo sapiens) [compound 85]
“+++” (≥50 = +++)	351 (ALSEKLARL; listed as Homo sapiens) [compound 351]
“+++” (≥50 = +++)	35 (FILPSSLYL; listed as Homo sapiens) [compound 35]
“+++” (≥50 = +++)	11 (ALFTFSPLTV; listed as Homo sapiens) [compound 11]
“+++” (≥50 = +++)	319 (QVIPQLQTV; listed as Homo sapiens) [compound 319]
“+++” (≥50 = +++)	206 (HMQDVRVLL; listed as Homo sapiens) [compound 206]
“++” (≥20% = ++)	142 (QLDEPAPQV; listed as Homo sapiens) [compound 142]
“+++” (≥50 = +++)	106 (FMASHLDYL; listed as Homo sapiens) [compound 106]
